# B1: C010100690 (bispecific antibody)
# chain: EVQLVESGGGLVQPGGSLRLSCAASGFTLAYYSIGWFRQAPGKEREGVSCISSGIDGSTYYADSVKGRFTISRDNAKNTMYLQMNNLKPEDTGVYYCAADPSHYYSEYDCGYYGMDYWGKGTLVTVSSGGGGSGGGGSGGGGSGGGGSGGGGSGGGGSGGGGSEVQLVESGGGLVQPGGSLRLSCAASGRTFSSYTMGWFRQAPGKEREFVAAISWSGGRTYYADSVKGRFTISRDNSKNTVYLQMNSLRPEDTAVYYCAAYRRRRASSNRGLWDYWGQGTLVTVSS
# notes: MMP13-Aggrecan bispecific Nanobody construct; also called 80A01-604F02SO
# B2: C010100683 (bispecific antibody)
# chain: EVQLVESGGGLVQPGGSLRLSCAASGFAFSAAYMSWVRQAPGKGLEWVSSISDDGSKTYYADSVKGRFTISRDNSKNTVYLQMNSLRPEDTAVYYCNTGYGATTTRPGRYWGQGTLVTVSSGGGGSGGGGSGGGGSGGGGSGGGGSGGGGSGGGGSEVQLVESGGGLVQPGGSLRLSCAASGSTFIINVVRWYRRAPGKQRELVATISSGGNANYVDSVRGRFTISRDNSKNTVYLQMNSLRPEDTAVYYCNVPTTHYGGVYYGPYWGQGTLVTVSSGGGGSGGGGSGGGGSGGGGSGGGGSGGGGSGGGGSEVQLVESGGGLVQPGGSLRLSCAASGSTFIINVVRWYRRAPGKQRELVATISSGGNANYVDSVRGRFTISRDNSKNTVYLQMNSLRPEDTAVYYCNVPTTHYGGVYYGPYWGQGTLVTVSS
# notes: MMP13-Aggrecan bispecific Nanobody construct; also called 62C02SO-114F08SO-114F08SO
# B3: C010100681 (bispecific antibody)
# chain: EVQLVESGGGLVQPGGSLRLSCAASGFTLAYYSIGWFRQAPGKEREGVSCISSGIDGSTYYADSVKGRFTISRDNAKNTMYLQMNNLKPEDTGVYYCAADPSHYYSEYDCGYYGMDYWGKGTLVTVSSGGGGSGGGGSGGGGSGGGGSGGGGSGGGGSGGGGSEVQLVESGGGLVQPGGSLRLSCAASGSTFIINVVRWYRRAPGKQRELVATISSGGNANYVDSVRGRFTISRDNSKNTVYLQMNSLRPEDTAVYYCNVPTTHYGGVYYGPYWGQGTLVTVSSGGGGSGGGGSGGGGSGGGGSGGGGSGGGGSGGGGSEVQLVESGGGLVQPGGSLRLSCAASGSTFIINVVRWYRRAPGKQRELVATISSGGNANYVDSVRGRFTISRDNSKNTVYLQMNSLRPEDTAVYYCNVPTTHYGGVYYGPYWGQGTLVTVSS
# notes: MMP13-Aggrecan bispecific Nanobody construct; also called 80A01-114F08SO-114F08SO
# B4: C0101PMP519E04 (VHH)
# VHH: DVQLVESGGGLVQPGGSLRLSCVASGPTFSDYAMGWFRQAPGKEREFVAAISWSGGSTYYADSVKGRFTISRDNSKNTVYLQMNSLRPEDTAVYYCTAARGGGYRASGGPLSEYNYWGQGTLVTVSS
# notes: Profile 2 Nanobody
# B5: C0101PMP521F02 (VHH)
# VHH: DVQLVESGGGLVQPGGSLRLSCVASGLTFSSYAMGWFRQAPGKEREFVAAISWSGGRTYYADSVKGRFTISRDNSKNTVYLQMNSLRPEDTAVYYCTAARGPGSVGPSEEYNYWGQGTLVTVSS
# notes: Profile 2 Nanobody
# B6: C0101PMP529C12 (VHH)
# VHH: DVQLVESGGGLVQPGGSLRLSCVASGSIFSINAMGWYRQAPGKQRELVAAISSGGSTYYADSVKGRFTISRDNSKNTVYLQMNSLRPEDTAVYYCNAAVDASRGLPYELYYYWGQGTLVTVSS
# notes: Profile 2 Nanobody; also called C0101529C12
# B7: C0101PMP062C02 (VHH)
# VHH: EVQLVESGGALVRPGGSLRLSCAASGFAFSAAYMSWVRQAPGRGLEWVSSISDDGSKTYYADSVKGRFTISRDNAKNTVYLQMNNLKPDDTAVYYCNTGYGATTTRPGRYWGQGTQVTVSS
# notes: Profile 2 Nanobody; also called C0101062C02
# B8: C0101PMP516G08 (VHH)
# VHH: DVQLVESGGGLVQPGGSLRLSCAGSGSIFRINVMAWYRQAPGKQRELVAAITSGGTTNYADSVKGRFTISRDNSKNTVYLQMNSLRPEDTAVYYCYADIGWPYVLDYDFWGQGTLVTVSS
# notes: Profile 2 Nanobody; also called C0101516G08
# B9: C0101PMP520B06 (VHH)
# VHH: DVQLVESGGGLVQPGGSLRLSCAASGRTFSSYAMGWFRQAPGKEREFVAAISWGGGSTYYSDSVKGRFTISRDNSKNTVYLQMNSLRPEDTAVYYCTAALGSTGSGSTPVPEYRYWGQGTLVTVSS
# notes: Profile 2 Nanobody
# B10: 40E09-62C02 clone 69 (bispecific antibody)
# chain: EVQLVESGGGSVQAGGSLRLSCAASGSTFSRYSMNWYRQAPGKQREFVAGISVGRITNYAVSVRGRFTISRDNAEGTGYLQMNSLKPEDTAVYYCNAGGLQGYWGLGTLVTVSSGGGGSGGGGSGGGGSGGGGSGGGGSGGGGSGGGGSEVQLVESGGALVRPGGSLRLSCAASGFAFSAAYMSWVRQAPGRGLEWVSSISDDGSKTYYADSVKGRFTISRDNAKNTVYLQMNNLKPDDTAVYYCNTGYGATTTRPGRYWGQGTLVTVSS
# B11: 40E09-517A01 clone 71 (bispecific antibody)
# chain: EVQLVESGGGSVQAGGSLRLSCAASGSTFSRYSMNWYRQAPGKQREFVAGISVGRITNYAVSVRGRFTISRDNAEGTGYLQMNSLKPEDTAVYYCNAGGLQGYWGLGTLVTVSSGGGGSGGGGSGGGGSGGGGSGGGGSGGGGSGGGGSEVQLVESGGGLVQPGGSLRLSCAASGRTFSSYAMGWFRQAPGKEREFVAAISWSGGSTYYADSVKGRFTISRDNSKNTVYLQMNSLRPEDTAVYYCTAALAVYGPNRYRYGPVGEYNYWGQGTLVTVSS
# B12: 516G08-40E09 clone 76 (bispecific antibody)
# chain: EVQLVESGGGLVQPGGSLRLSCAGSGSIFRINVMAWYRQAPGKQRELVAAITSGGTTNYADSVKGRFTISRDNSKNTVYLQMNSLRPEDTAVYYCYADIGWPYVLDYDFWGQGTLVTVSSGGGGSGGGGSGGGGSGGGGSGGGGSGGGGSGGGGSEVQLVESGGGSVQAGGSLRLSCAASGSTFSRYSMNWYRQAPGKQREFVAGISVGRITNYAVSVRGRFTISRDNAEGTGYLQMNSLKPEDTAVYYCNAGGLQGYWGLGTLVTVSS
# B13: 517A01-40E09 clone 80 (bispecific antibody)
# chain: EVQLVESGGGLVQPGGSLRLSCAASGRTFSSYAMGWFRQAPGKEREFVAAISWSGGSTYYADSVKGRFTISRDNSKNTVYLQMNSLRPEDTAVYYCTAALAVYGPNRYRYGPVGEYNYWGQGTLVTVSSGGGGSGGGGSGGGGSGGGGSGGGGSGGGGSGGGGSEVQLVESGGGSVQAGGSLRLSCAASGSTFSRYSMNWYRQAPGKQREFVAGISVGRITNYAVSVRGRFTISRDNAEGTGYLQMNSLKPEDTAVYYCNAGGLQGYWGLGTLVTVSS
# B14: 40E09-516G08 clone 70 (bispecific antibody)
# chain: EVQLVESGGGSVQAGGSLRLSCAASGSTFSRYSMNWYRQAPGKQREFVAGISVGRITNYAVSVRGRFTISRDNAEGTGYLQMNSLKPEDTAVYYCNAGGLQGYWGLGTLVTVSSGGGGSGGGGSGGGGSGGGGSGGGGSGGGGSGGGGSEVQLVESGGGLVQPGGSLRLSCAGSGSIFRINVMAWYRQAPGKQRELVAAITSGGTTNYADSVKGRFTISRDNSKNTVYLQMNSLRPEDTAVYYCYADIGWPYVLDYDFWGQGTLVTVSS
# B15: 62C02-40E09 clone 72 (bispecific antibody)
# chain: EVQLVESGGALVRPGGSLRLSCAASGFAFSAAYMSWVRQAPGRGLEWVSSISDDGSKTYYADSVKGRFTISRDNAKNTVYLQMNNLKPDDTAVYYCNTGYGATTTRPGRYWGQGTLVTVSSGGGGSGGGGSGGGGSGGGGSGGGGSGGGGSGGGGSEVQLVESGGGSVQAGGSLRLSCAASGSTFSRYSMNWYRQAPGKQREFVAGISVGRITNYAVSVRGRFTISRDNAEGTGYLQMNSLKPEDTAVYYCNAGGLQGYWGLGTLVTVSS
# Target: T1, Aggrecan
# T1 construct: also called CAP
# Assay: competition ELISA (CAP) on Aggrecan; competitor not stated
row,Binder,IC50 [nM]
1,B1,24
2,B2,0.23
3,B3,0.99

# Target: T2, activated human MMP13 (human, UniProt P45452 104-471)
# Assay: cell-based or functional assay
row,Binder,"potency, human fluorogenic peptide assay [nM]"
1,B1,2.42
2,B2,0.953
3,B3,1.08

# Target: T3, activated rat MMP13 (rat, UniProt P23097 99-466)
# Assay: cell-based or functional assay
row,Binder,"IC50, rat fluorogenic peptide assay [nM]"
1,B4,3
2,B5,2.1
3,B6,0.2
4,B7,1.1
5,B8,5.2
6,B9,7.8

# Target: T2, activated human MMP13
# Assay: cell-based or functional assay
# Remark: another data set of the same source
Binder,"IC50, human fluorogenic collagen assay [nM]","IC50, human fluorogenic peptide assay [nM]","IC50, human collagenolytic assay [nM]"
B4,24.8,9.5,
B5,20.7,7.2,
B6,4.9,1.2,
B7,8.3,1.4,1.4
B8,3.8,0.8,0.9
B9,27.5,13.4,

# Target: cynomolgus MMP13 (cynomolgus, UniProt A0A2K5U988 104-471)
# Assay: cell-based or functional assay
row,Binder,"IC50, cyno fluorogenic peptide assay [nM]"
1,B4,7.2
2,B5,7
3,B6,0.7
4,B7,1.4
5,B8,0.4
6,B9,9.5

# Target: bovine MMP13 (bovine, UniProt O77656 104-471)
# Assay: cell-based or functional assay
row,Binder,"IC50, bovine fluorogenic peptide assay [nM]"
1,B4,17.1
2,B5,16.1
3,B6,1.2
4,B7,3.1
5,B8,1.5
6,B9,27.7

# Target: activated dog MMP13 (dog, UniProt P45452 104-471 (human entry))
# Assay: cell-based or functional assay
row,Binder,"IC50, dog fluorogenic peptide assay [nM]"
1,B4,7
2,B5,5.5
3,B6,0.2
4,B7,1
5,B8,4.4
6,B9,17.3

# Target: T4, activated MMP13 (species not stated) (Homo sapiens (Human), UniProt P45452 104-471, Biotinylated in the TIMP-2 competition ELISA (sites not given). Activated form: pro-peptide removed.)
# T4 construct: campaign 4 ELISA; Probably human
# Assay: TIMP-2 competition ELISA; Nanobody pre-incubated with 1.26 nM activated MMP13-biotin, binding to captured TIMP-2
row,Binder,IC50 [nM]
1,B4,5.5
2,B5,8.5
3,B6,0.4
4,B7,0.9
5,B8,0.5
6,B9,9.3

# Target: T3, activated rat MMP13
# Assay: cell-based or functional assay
# Remark: another data set of the same source
row,Binder,"IC50, (adapted) rat fluorogenic peptide assay [nM]"
1,B10,1.12
2,B11,0.11
3,B12,0.16
4,B13,0.13
5,B7,2.88
6,B8,4.98
7,B14,0.12
8,B15,0.1

# Target: T2, activated human MMP13
# Assay: cell-based or functional assay
# Remark: another data set of the same source
row,Binder,"IC50, human fluorogenic collagen assay [nM]"
1,B11,6.5
2,B12,3.55
3,B13,4.06
4,B7,8.32
5,B8,3.78
6,B14,2.9
7,B15,2.4

# Reference: patent US12129308 (Merck KGaA, dated 2024)
